Experimental data published in the supplement of paper PMC9876800.

System: peptide library, one residue held at a place counted from the S/T acceptor
Assay: relative phosphorylation of the sub-library (ratio to the mean residue at this position); higher = residue favoured
Outline: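 Purified recombinant kinases (human or orthologue constructs) were incubated in 384-well plates with biotinylated degenerate peptide sub-libraries, each fixing one residue at one position around a central Ser/Thr. Peptides were at 50 μM, with 50 μM ATP spiked with γ-32P-ATP, for 90 min under kinase-specific conditions. Spots on streptavidin membranes were phosphorimaged and quantified by densitometry. Relative sub-library phosphorylation is a ratio to the mean residue at that position.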

Chain of CDK12, construct: aa714-1063, human (Q9NYV4 714-1063, looked up): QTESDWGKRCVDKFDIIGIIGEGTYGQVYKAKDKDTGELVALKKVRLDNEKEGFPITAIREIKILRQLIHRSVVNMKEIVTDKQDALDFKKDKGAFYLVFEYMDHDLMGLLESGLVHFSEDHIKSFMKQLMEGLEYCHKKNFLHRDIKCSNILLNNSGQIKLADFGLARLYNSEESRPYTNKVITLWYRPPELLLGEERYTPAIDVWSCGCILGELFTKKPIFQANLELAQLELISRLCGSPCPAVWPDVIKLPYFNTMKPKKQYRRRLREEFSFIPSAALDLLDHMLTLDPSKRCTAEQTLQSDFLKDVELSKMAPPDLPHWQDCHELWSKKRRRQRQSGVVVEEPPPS
Chain of GRK4, construct: Full length, human (P32298 whole entry, looked up): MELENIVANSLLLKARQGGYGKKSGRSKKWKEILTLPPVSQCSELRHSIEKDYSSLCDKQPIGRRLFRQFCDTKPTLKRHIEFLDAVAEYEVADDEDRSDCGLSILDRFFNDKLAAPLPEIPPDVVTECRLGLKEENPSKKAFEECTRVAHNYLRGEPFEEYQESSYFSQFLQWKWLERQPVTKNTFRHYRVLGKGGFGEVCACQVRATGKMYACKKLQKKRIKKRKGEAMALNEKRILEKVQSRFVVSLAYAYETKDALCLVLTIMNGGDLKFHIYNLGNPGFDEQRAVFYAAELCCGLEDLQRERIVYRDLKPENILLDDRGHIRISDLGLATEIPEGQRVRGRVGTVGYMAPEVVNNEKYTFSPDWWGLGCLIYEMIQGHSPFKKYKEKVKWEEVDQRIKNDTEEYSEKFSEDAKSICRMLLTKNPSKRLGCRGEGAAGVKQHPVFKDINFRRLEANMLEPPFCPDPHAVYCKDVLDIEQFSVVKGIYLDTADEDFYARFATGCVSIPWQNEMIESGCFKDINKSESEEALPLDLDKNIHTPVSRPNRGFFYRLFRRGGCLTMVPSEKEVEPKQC
Chain of AURKC, construct: Full length, human (Q9UQB9 whole entry, looked up): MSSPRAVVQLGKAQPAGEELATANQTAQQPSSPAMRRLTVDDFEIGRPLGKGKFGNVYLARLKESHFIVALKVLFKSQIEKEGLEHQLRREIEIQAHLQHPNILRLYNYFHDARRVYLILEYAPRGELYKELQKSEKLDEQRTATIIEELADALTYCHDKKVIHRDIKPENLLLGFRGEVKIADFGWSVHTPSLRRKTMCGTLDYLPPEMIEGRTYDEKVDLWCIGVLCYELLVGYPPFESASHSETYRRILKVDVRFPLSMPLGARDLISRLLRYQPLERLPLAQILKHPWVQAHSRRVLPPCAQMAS
Chain of MARK4, construct: Full length, human (Q96L34 whole entry, looked up): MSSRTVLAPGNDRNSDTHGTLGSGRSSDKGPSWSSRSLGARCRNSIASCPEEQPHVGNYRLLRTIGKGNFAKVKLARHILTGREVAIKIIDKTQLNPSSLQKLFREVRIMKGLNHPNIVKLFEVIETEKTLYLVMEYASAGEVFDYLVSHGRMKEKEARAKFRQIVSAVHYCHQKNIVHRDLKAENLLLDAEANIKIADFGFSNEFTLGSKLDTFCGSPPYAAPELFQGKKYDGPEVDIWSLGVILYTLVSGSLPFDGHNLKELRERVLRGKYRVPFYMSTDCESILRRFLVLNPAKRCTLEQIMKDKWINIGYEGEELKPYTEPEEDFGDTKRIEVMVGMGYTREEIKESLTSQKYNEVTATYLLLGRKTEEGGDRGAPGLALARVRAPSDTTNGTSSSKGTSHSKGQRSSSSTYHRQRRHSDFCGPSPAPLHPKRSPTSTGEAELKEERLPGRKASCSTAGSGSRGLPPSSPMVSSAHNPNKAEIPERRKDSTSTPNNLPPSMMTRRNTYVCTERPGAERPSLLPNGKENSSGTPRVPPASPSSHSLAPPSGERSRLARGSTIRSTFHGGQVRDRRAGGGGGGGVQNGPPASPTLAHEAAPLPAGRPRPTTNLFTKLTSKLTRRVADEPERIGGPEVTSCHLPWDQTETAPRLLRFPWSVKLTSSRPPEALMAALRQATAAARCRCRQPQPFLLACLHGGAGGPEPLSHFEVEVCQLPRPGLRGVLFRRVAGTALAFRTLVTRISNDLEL

GRK4, construct: Full length, human (from UniProt P32298)
relative phosphorylation
Settings	at +1	at +2	at +3	at +4	at -1	at -2	at -3	at -4	at -5
A fixed	0.613	1.5	0.747	0.859	0.654	0.895	0.863	0.994	1
D fixed	0.683	1.24	1.53	1.65	1.57	2.39	1.88	1.75	1.83
E fixed	1.41	0.872	1.57	1.51	1.2	1.95	1.88	1.69	1.48
F fixed	1.52	1.23	1.51	1.17	0.998	0.992	0.902	0.854	0.992
G fixed	0.577	0.879	0.953	0.928	0.619	0.983	0.927	0.965	1.02
H fixed	0.879	0.954	0.99	0.911	1.92	0.855	0.911	0.897	0.991
I fixed	1.57	1.54	0.741	0.779	0.637	0.649	0.697	0.752	0.695
K fixed	0.455	0.414	0.432	0.614	0.492	0.547	0.612	0.778	0.89
L fixed	1.01	0.356	0.763	0.777	0.882	0.619	0.745	0.835	0.796
M fixed	1.44	0.717	0.918	0.894	0.792	0.681	0.858	0.874	0.794
N fixed	0.674	0.753	0.685	0.906	1.28	1.18	1.03	1.05	0.954
P fixed	0.249	0.522	0.928	1.3	0.607	0.77	1.2	0.977	0.892
Q fixed	1.28	0.613	0.662	0.903	0.805	0.872	0.912	0.839	0.86
R fixed	0.602	0.408	0.554	0.654	0.542	0.789	0.787	0.797	0.814
V fixed	1.75	1.85	0.782	0.855	1.21	0.71	0.721	0.812	0.773
W fixed	1.16	1.73	2.11	1.29	0.812	1.21	0.941	1.09	1.25
Y fixed	1.12	1.43	1.12	1	1.97	0.903	1.13	1.05	0.975
pThr fixed	1.45	0.994	1.12	2.32	0.656	3.34	3.2	1.75	1.4
pTyr fixed	1.46	1.33	1.25	1.81	1.73	3.38	2.82	2.06	1.71

CDK12, construct: aa714-1063, human (from UniProt Q9NYV4)
relative phosphorylation
Settings	at +1	at +2	at +3	at +4	at -1	at -2	at -3	at -4	at -5
A fixed	0.323	0.895	0.799	0.848	1.09	1.19	1.04	1.11	1.13
D fixed	0.154	0.546	0.392	0.912	0.38	0.47	0.629	0.861	0.879
E fixed	0.155	0.5	0.446	0.923	0.438	0.456	0.707	0.9	0.735
F fixed	0.341	0.984	0.553	0.891	0.844	0.667	0.778	1.07	1.21
G fixed	0.715	1.28	0.854	1.43	1.58	1.7	2.58	1.27	1.09
H fixed	0.261	1.21	1.79	1.44	0.876	0.811	0.897	1.04	1.01
I fixed	0.309	0.911	0.929	0.828	0.364	0.973	0.971	0.891	0.868
K fixed	0.27	1.34	0.977	0.804	1.01	0.659	0.63	0.832	0.847
L fixed	0.36	0.853	0.545	0.765	0.834	0.863	0.754	0.946	0.939
M fixed	0.357	1.16	0.523	0.832	1.65	1.28	0.819	1.04	0.924
N fixed	0.227	0.992	0.721	0.973	0.801	0.713	0.686	0.893	0.82
P fixed	12.1	0.747	1.26	0.992	1.08	1.84	1.33	1.06	1.28
Q fixed	0.243	0.828	0.709	0.889	0.982	0.738	0.637	0.763	0.883
R fixed	0.281	1.77	3.97	0.962	2.34	1.58	1.75	1.02	1.03
V fixed	0.319	0.846	0.71	0.73	0.467	0.906	0.762	0.784	0.899
W fixed	0.283	0.933	0.881	1.58	1.1	1.2	0.927	1.35	1.19
Y fixed	0.274	1.2	0.934	1.21	1.17	0.956	1.1	1.19	1.27
pThr fixed	0.363	0.528	0.566	0.999	0.336	0.48	0.83	0.846	0.975
pTyr fixed	0.378	0.504	0.859	1.29	1.16	0.719	0.908	0.998	0.975

AURKC, construct: Full length, human (from UniProt Q9UQB9)
relative phosphorylation
Settings	at +1	at +2	at +3	at +4	at -1	at -2	at -3	at -4	at -5
A fixed	1.01	1.38	1.08	0.973	0.816	0.333	0.832	1.25	1.46
D fixed	0.814	0.611	0.589	0.957	0.459	0.179	0.421	0.58	0.651
E fixed	0.755	0.417	0.466	0.681	0.394	0.167	0.36	0.562	0.554
F fixed	1.06	0.746	0.893	0.763	0.505	0.206	0.451	0.634	0.678
G fixed	1.37	2.03	1.6	1.25	0.672	0.399	1.06	1.33	1.63
H fixed	1.06	1.66	1.43	1.1	0.974	0.399	1.1	0.955	1.06
I fixed	0.852	0.592	0.605	0.684	0.406	0.25	0.402	0.623	0.63
K fixed	0.89	0.853	1.13	1.23	2.57	2.63	2.51	2.06	2.15
L fixed	1.15	0.694	0.863	0.792	0.811	0.251	0.392	0.601	0.632
M fixed	1.57	0.705	0.719	0.803	0.727	0.248	0.52	0.741	0.664
N fixed	1.29	1.23	1.25	1.2	0.73	0.304	0.919	0.856	1.05
P fixed	0.329	1.5	1.78	1.68	1.09	0.372	1.23	1.72	1.25
Q fixed	1.16	0.975	1.03	1.35	1.09	0.529	0.803	0.96	0.767
R fixed	1	0.962	1.08	1.13	3.72	10	4.34	2.18	1.47
V fixed	0.669	0.686	0.625	0.901	0.495	0.213	0.432	0.59	0.804
W fixed	1.08	1.03	0.961	0.859	0.526	0.233	0.674	0.69	0.852
Y fixed	0.931	0.928	0.906	0.647	1.01	0.25	0.55	0.673	0.719
pThr fixed	1.1	0.657	0.676	1.06	0.334	0.342	0.612	0.86	0.713
pTyr fixed	0.648	0.502	0.631	0.801	0.398	0.209	0.52	0.629	0.535

MARK4, construct: Full length, human (from UniProt Q96L34)
relative phosphorylation
Settings	at +1	at +2	at +3	at +4	at -1	at -2	at -3	at -4	at -5
A fixed	0.923	1	0.855	0.686	1.2	1.82	0.932	1.32	1.32
D fixed	0.605	0.8	1.94	0.629	0.694	0.498	0.552	0.801	0.875
E fixed	0.864	1.08	0.886	0.529	0.582	0.447	0.522	0.844	0.676
F fixed	0.652	0.854	0.919	0.788	0.472	1.08	0.91	0.875	1.03
G fixed	0.706	0.562	0.687	0.611	2.59	1.62	0.951	1.32	1.15
H fixed	0.956	1.01	1.45	0.652	0.868	1.26	1.25	1.11	0.977
I fixed	0.933	0.829	0.653	2.53	0.464	0.599	0.572	0.61	0.818
K fixed	0.83	0.707	0.627	0.517	1.64	0.884	1.65	1.34	1.33
L fixed	1.11	1.14	0.857	4.02	0.668	0.479	0.692	0.726	1.27
M fixed	1.89	0.973	0.879	1.41	0.756	0.62	0.881	1.04	0.969
N fixed	1.17	1.02	2.69	0.601	0.982	0.718	0.695	0.913	0.753
P fixed	0.372	0.785	0.344	0.587	1.37	0.709	1.08	1.1	0.893
Q fixed	1.74	1.11	0.894	0.576	1.3	0.6	0.751	0.775	0.81
R fixed	1.12	0.826	0.592	0.41	1.36	0.97	2.57	1.34	1.2
V fixed	1.29	0.872	0.634	1.27	0.721	0.682	0.634	0.711	0.972
W fixed	0.9	2.44	0.961	0.58	0.581	2.41	1.42	1.17	1.13
Y fixed	0.94	0.991	1.13	0.6	0.758	1.6	0.938	1	0.819
pThr fixed	0.858	0.855	0.4	0.541	0.428	0.577	0.542	0.786	0.706
pTyr fixed	0.58	0.648	0.716	0.471	0.618	0.611	0.636	0.802	0.681
